Consider four molecules from patent US20120003245A1 (UNIVERSITY OF GUELPH, published 2012).

Numbering of substitutions follows the chain as printed.

The target of this experiment is α-cobratoxin (Naja kaouthia, UniProt P01391).
Sequence of α-cobratoxin (P01391 whole entry): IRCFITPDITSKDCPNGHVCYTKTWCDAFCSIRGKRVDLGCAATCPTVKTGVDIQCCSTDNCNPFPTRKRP

B1: anti-α-cobratoxin VHH C19 (VHH)
VHH: QVKLEESGGGLAQAGGSLRLSCIGSGDISSFNAMGWYRQVPGKQRELVAFISSGGRSKYTDSVKGRFTISGDNAKNTVYLQMIDLKPEDTAVYYCNAGSVVSYETGNYYEPSNYWGQGTQVTVSS
Usually Kd stands for the concentration at which binding is half-saturated. Low readings indicate higher affinity, high ones lower affinity. As usually defined, the koff is a measure of how fast the partners let go of each other. High values mean fast dissociation, low ones slow dissociation. For orientation: kon means a measure of how fast the partners come together. Molecule B1 registered a Kd of 25 nM, a dissociation rate constant (koff) of 0.01 s⁻¹ and a kon of 580000 M⁻¹ s⁻¹.

B2: anti-α-cobratoxin VHH C2 (VHH)
VHH: QVKLEESGGGLVLPGGSLRLSCAASGSISSIYAMGWYRQAPGKQREVVAVITNGNSPNYADSVKGRFTISRDNAKNTVYLQMNSLKPEDTAVYYCNVEGVRYGDSWYDGDYWGQGTQVTVSS
B2: the dissociation constant Kd amounted to 0.4 nM, the koff is 0.00019 s⁻¹ and the kon was 520000 M⁻¹ s⁻¹.

B3: anti-α-cobratoxin VHH C43 (VHH)
VHH: B2 VHH with Q1R, L13Q, P14A, A24V, I28T, S29F, S30D, I31D, M34I
As to B3, the Kd was 24 nM, the koff stood at 0.0068 s⁻¹ and the kon is 290000 M⁻¹ s⁻¹.

B4: anti-α-cobratoxin VHH C20 (VHH)
VHH: QVKLEESGGGLVQPGGSLRLSCVGSGSISSFNGMGWYRQVPGKQRELVAFISSGGRSKYTDSVKGRFTISGDNAKSTVYLQMINLKPEDTAVYYCNVGSVLSYVTGNYYEPSDYWGQGTQVTVSS
Molecule B4 returned a Kd of 1 nM, a koff of 0.0017 s⁻¹ and an association rate constant (kon) of 1.8e+06 M⁻¹ s⁻¹.
